According to article PMC2912425 (Biochemistry, 2010):

B1: 6xHis Grp1_(13-248) (domain or fragment, mouse, UniProt O08967 13-248, looked up)
chain: PEDLSLEEREELLDIRRRKKELIDDIERLKYEIAEVMTEIDNLTSVEESKTTQRNKQIAMGRKKFNMDPKKGIQFLIENDLLQSSPEDVAQFLYKGEGLNKTVIGDYLGERDDFNIKVLQAFVELHEFADLNLVQALRQFLWSFRLPGEAQKIDRMMEAFASRYCLCNPGVFQSTDTCYVLSFAIIMLNTSLHNHNVRDKPTAERFITMNRGINEGGDLPEELLRNLYESIKNEPF
B2: 6xHis ARNO_(2-252) (domain or fragment, human, UniProt Q99418 2-252, looked up)
chain: EDGVYEPPDLTPEERMELENIRRRKQELLVEIQRLREELSEAMSEVEGLEANEGSKTLQRNRKMAMGRKKFNMDPKKGIQFLVENELLQNTPEEIARFLYKGEGLNKTAIGDYLGEREELNLAVLHAFVDLHEFTDLNLVQALRQFLWSFRLPGEAQKIDRMMEAFAQRYCLCNPGVFQSTDTCYVLSFAVIMLNTSLHNPNVRDKPGLERFVAMNRGINEGGDLPEELLRNLYDSIRNEPFKIPEDDGND
B3: 6xHis Cytohesin-1_(2-244) (domain or fragment, human, UniProt Q15438 2-244, looked up)
chain: EEDDSYVPSDLTAEERQELENIRRRKQELLADIQRLKDEIAEVANEIENLGSTEERKNMQRNKQVAMGRKKFNMDPKKGIQFLIENDLLKNTCEDIAQFLYKGEGLNKTAIGDYLGERDEFNIQVLHAFVELHEFTDLNLVQALRQFLWSFRLPGEAQKIDRMMEAFAQRYCQCNNGVFQSTDTCYVLSFAIIMLNTSLHNPNVKDKPTVERFIAMNRGINDGGDLPEELLRNLYESIKNEPF

Assays:
6xHis Grsp1_(2-400) = molecular target: T1, 6xHis Grsp1_(2-400) (mouse, UniProt Q920B0-2 2-400); assay: SEC
T1 sequence (looked up): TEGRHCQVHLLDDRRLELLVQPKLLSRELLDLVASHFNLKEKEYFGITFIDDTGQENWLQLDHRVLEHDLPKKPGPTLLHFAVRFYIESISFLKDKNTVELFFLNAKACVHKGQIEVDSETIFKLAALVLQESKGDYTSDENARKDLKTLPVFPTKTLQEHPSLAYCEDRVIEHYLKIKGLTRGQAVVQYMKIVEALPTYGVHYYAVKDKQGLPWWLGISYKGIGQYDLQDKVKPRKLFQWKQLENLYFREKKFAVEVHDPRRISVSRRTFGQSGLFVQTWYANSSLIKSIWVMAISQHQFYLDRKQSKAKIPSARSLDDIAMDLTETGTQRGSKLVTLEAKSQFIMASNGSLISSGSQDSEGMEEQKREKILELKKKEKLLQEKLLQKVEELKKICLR

SEC = molecular target: the molecule itself; assay: SEC
AUC = molecular target: the molecule itself; assay: AUC

Binder | percent of Grsp1_(2-400) bound (6xHis Grsp1_(2-400)) | stoichiometry N (SEC) | stoichiometry N (AUC)
B1 | > 90% | 2 | –
B2 | – | – | 2
B3 | > 90% | – | –
